Here are results for two molecules from doi:10.1101/2023.06.22.546067 (bioRxiv, 2023).

Changes are numbered by the printed parent chain. Names may count otherwise.

For orientation: stoichiometry N means the number of molecules, sites or subunits per partner or assembly.

The target in series [1] is T1, transcription termination factor ρ variant P167L (ρ^P167L), purified (E. coli, UniProt P0AG30, P167L). Kind of series: stopped-flow/FRET.
The series “cryo-EM structure” concerns the molecule itself. Kind of series: cryo-EM structure.
The target in series [2] is T1, transcription termination factor ρ …. Kind of series: SEC. (In general: SEC sorts molecules by how far they enter the pores of the column.)

B1: phage P4 polarity suppression protein Psu, wild-type (Psu^wt), purified (natural protein)
chain: MESTALQQAFDTCQNNKAAWLQRKNELAAAEQEYLRLLSGEGRNVSRLDELRNIIEVRKWQVNQAAGRYIRSHEAVQHISIRDRLNDFMQQHGTALAAALAPELMGYSELTAIARNCAIQRATDALREALLSWLAKGEKINYSAQDSDILTTIGFRPDVASVDDSREKFTPAQNMIFSRKSAQLASRQSV
Take B1: the binding result in series [1] is recorded as “binds”. Also, the “stoichiometry N” value in the series “cryo-EM structure” is 2.

B2: Psu variant R43A (Psu^R43A), purified (natural protein)
chain: B1 chain with R43A
Consider B2, for which the binding result in series [2] is recorded as “binds”.
